Data set [1] has as its target T1, rVEGF164 (rat, UniProt P16612-2 27-190).
T1 sequence: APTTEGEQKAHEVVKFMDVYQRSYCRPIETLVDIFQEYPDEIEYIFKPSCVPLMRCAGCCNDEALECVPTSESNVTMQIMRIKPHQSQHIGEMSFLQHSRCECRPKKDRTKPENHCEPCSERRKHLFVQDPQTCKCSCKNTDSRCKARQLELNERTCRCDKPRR
The data set is described as follows: ELONA1.

The target in another data set is hVEGF165 (human, UniProt P15692-4 27-191). In words: ELONA1.
In data set [2] the target is T1, rVEGF164. In words: ELONA2.

In article PMC6547419 one finds Kd data, which are given here for one molecule.

B1: V7t1 (ssDNA)
DNA: TGTGGGGGTGGACGGGCCGGGTAGA
In the case of B1, the Kd with rVEGF164 [1] is 0.62 ± 0.14 nM; in the data set with hVEGF165 it was 0.77 ± 0.17 nM; with rVEGF164 [2], 4.3 ± 0.5 nM.

The term Kd denotes a measure of binding affinity in units of concentration.
